Reference: patent US20260176307A1 (VECTORY THERAPEUTICS B V, published 2026)

T1: non-phosphorylated C-terminal TDP-43 peptide NAGSGSGFNGGFGSSMDSKSSGWGM (human, N-terminally biotinylated)
T1 construct: Synthetic biotinylated peptide captured on streptavidin plates; also called non-phosphorylated TDP-43
T1 peptide: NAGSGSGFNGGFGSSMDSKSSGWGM


Columns and labels:
[1] = biological target: T1, non-phosphorylated C-terminal TDP-43 …; assay: ELISA, biotinylated peptide on streptavidin plate, scFv format, rabbit anti-G4S and anti-rabbit HRP; profile referred to: less efficient at binding non-phosphorylated TDP-43
Description: The ability of clones to bind phosphorylated TDP-43 and/or non-phosphorylated TDP-43 was assessed using N-terminally biotinylated TDP-43 peptides having the following sequences: […] (SEQ ID NO: 218; non-phosphorylated); […] {PSER} SGWGM (SEQ ID NO: 219; phosphorylated S409); […] {PSER} GWGM (SEQ ID NO: 220; phosphorylated S410); and […] {PSER} {PSER} GWGM (SEQ ID NO: 221; phosphorylated S409/S410). Peptides were dissolved in 100% DMSO, aliquoted, and stored in −80° C. before use. Wells were incubated with 100 μL (5 μg/mL) of the peptides on streptavidin plates overnight at 4° C. The plates were then washed 3× in PBST wash buffer. Antibody clones B, C, G, I, O, S, U, and X, and non-binding controls (VRC07 for full-length IgG, and anti-methamphetamine clone 6H4 as control for the scFv experiments) were made in full-length human IgG₁ and scFv formats (IpA), and dilutions were prepared in blocking buffer (2% BSA). 100 μL/well of the dilutions were added to coated plates and the plates were incubated at RT for 1 hour. The plates were subsequently washed 3× with 250 μL/well wash buffer. […] The plates were subsequently washed 3× and 100 μL/well of TMB ready solution was added to the wells, followed by 3-4 minutes incubation in the dark. The reaction was stopped with 1M H₂SO₄ added to the wells (100 μL/well), and absorption measured on a GloMax plate reader (Promega) at […].

[2] = biological target: T1, non-phosphorylated C-terminal TDP-43 …; assay: ELISA, biotinylated peptide on streptavidin plate, scFv format, rabbit anti-G4S and anti-rabbit HRP
Description: (§1) The ability of clones to bind phosphorylated TDP-43 and/or non-phosphorylated TDP-43 was assessed using N-terminally biotinylated TDP-43 peptides having the following sequences: […] (SEQ ID NO: 218; non-phosphorylated); […] {PSER} SGWGM (SEQ ID NO: 219; phosphorylated S409); […] {PSER} GWGM (SEQ ID NO: 220; phosphorylated S410); and […] {PSER} {PSER} GWGM (SEQ ID NO: 221; phosphorylated S409/S410). Peptides were dissolved in 100% DMSO, aliquoted, and stored in −80° C. before use. Wells were incubated with 100 μL (5 μg/mL) of the peptides on streptavidin plates overnight at 4° C. The plates were then washed 3× in PBST wash buffer. Antibody clones B, C, G, I, O, S, U, and X, and non-binding controls (VRC07 for full-length IgG, and anti-methamphetamine clone 6H4 as control for the scFv experiments) were made in full-length human IgG₁ and scFv formats (IpA), and dilutions were prepared in blocking buffer (2% BSA). 100 μL/well of the dilutions were added to coated plates and the plates were incubated at RT for 1 hour. The plates were subsequently washed 3× with 250 μL/well wash buffer. 100 μL/well of primary antibody CEN63-C13 Rb-a-G4S (IpA) diluted in blocking buffer (2 μg/ml) was added and the plates were incubated for 1 hour at RT followed by 3× washing in PBST. For detection, 100 μL/well secondary antibodies (goat anti human IgG₁ HRP (Jackson ImmunoResearch) or goat anti-rabbit HRP for scFv (Promega)) diluted in blocking buffer (1:5000) was added to the wells and the plates were incubated for 1 hour at RT. The plates were subsequently washed 3× and 100 μL/well of TMB ready solution was added to the wells, followed by 3-4 minutes incubation in the dark. The reaction was stopped with 1M H₂SO₄ added to the wells (100 μL/well), and absorption measured on a GloMax plate reader (Promega) at […].

[3] = biological target: T1, non-phosphorylated C-terminal TDP-43 …; assay: ELISA, biotinylated peptide on streptavidin plate, IgG1 format, anti-human IgG1 HRP
Description: as §1

| Binder | binding result [2] | binding result [3] | other results |
| --- | --- | --- | --- |
| anti-TDP43 clone S, scFv format (scFv, also called VecTab S (as AAV5.2-encoded scFv)) scFv: QVQLVQSGAEVKKPGASVKVSCKASGYTFTKYWMHWVRQAPGQGLEWMGEINPSNGRTNYPQKFQGRVTMTRDTSTSTVYMELSSLRSEDTAVYYCWRYMDYWGQGTLVTVSSGGGGSGGGGSGGGGSDIVMTQSPLSLPVTPGEPASISCRSSQSLLHSNGYNYLDWYLQKPGQSPQLLIYKVSNRFTGVPDRFSGSGSGTDFTLKISRVEAEDVGVYYCMQHTHWPPAFGGGTKVEIK | – | – | binding result [1]: binds |
| anti-TDP43 clone X, scFv format (scFv) scFv: QVQLVQSGAEVKKPGASVKVSCKASGYTFTSHYLHWVRQAPGQGLEWMGIINPSNGRTNYNQKFQGRVTMTRDTSTSTVYMELSSLRSEDTAVYYCWRYMDYWGQGTLVTVSSGGGGSGGGGSGGGGSDIVMTQSPLSLPVTPGEPASISCRSSQSLLHSNGYNYLDWYLQKPGQSPQLLIYEVSNRFSGVPDRFSGSGSGTDFTLKISRVEAEDVGVYYCLQHTHWPPTFGGGTKVEIK | – | – | binding result [1]: binds |
| anti-TDP43 clone C, scFv format (scFv) scFv: QVQLVQSGAEVKKPGASVKVSCKASGFTFTEYSMHWVRQAPGQGLEWMGGINPNNGGTSYNQKFQGRVTMTRDTSTSTVYMELSSLRSEDTAVYYCARESWGQGTLVTVSSGGGGSGGGGSGGGGSDIVMTQSPLSLPVTPGEPASISCKSSQSLLHSDGKTYLNWYLQKPGQSPQLLIYLGSNRASGVPDRFSGSGSGTDFTLKISRVEAEDVGVYYCFQGTHFPHTFGGGTKVEIK | binds | – | – |
| anti-TDP43 clone I, scFv format (scFv, also called VecTab I (as AAV5.2-encoded scFv)) scFv: QVQLVQSGAEVKKPGASVKVSCKASGFTFTEYSMHWVRQAPGQGLEWMGGINPNNGGTIYNQKFQGRVTMTRDTSTSTVYMELSSLRSEDTAVYYCARESWGQGTLVTVSSGGGGSGGGGSGGGGSDIVMTQSPLSLPVTPGEPASISCKSSQSLLHSDGKTYLNWYLQKPGQSPQLLIYLGSNRASGVPDRFSGSGSGTDFTLKISRVEAEDVGVYYCMQGTHFPHTFGGGTKVEIK | binds | – | – |
| anti-TDP43 clone B, scFv format (scFv, also called VecTab B (as AAV5.2-encoded scFv)) scFv: QVQLVQSGAEVKKPGASVKVSCKASGFTFTELSMHWVRQAPGQGLEWMGGINPNNGGTSYNQKFQGRVTMTRDTSTSTVYMELSSLRSEDTAVYYCARESWGQGTLVTVSSGGGGSGGGGSGGGGSDIVMTQSPLSLPVTPGEPASISCKSSQSLLHSDGKTYLNWYLQKPGQSPQLLIYLASRRASGVPDRFSGSGSGTDFTLKISRVEAEDVGVYYCFQGTHFPHTFGGGTKVEIK | binds | – | – |
| anti-TDP43 clone G, scFv format (scFv, also called VecTab G (as AAV5.2-encoded scFv)) scFv: QVQLVQSGAEVKKPGASVKVSCKASGFTFTEYSMHWVRQAPGQGLEWMGGINPNNGGTSYNQKFQGRVTMTRDTSTSTVYMELSSLRSEDTAVYYCASESWGQGTLVTVSSGGGGSGGGGSGGGGSDIVMTQSPLSLPVTPGEPASISCKSSQSLLHSDGKTYLNWYLQKPGQSPQLLIYLVSKLKSGVPDRFSGSGSGTDFTLKISRVEAEDVGVYYCMQGTHFPHTFGGGTKVEIK | binds | – | – |
| anti-TDP43 clone C, full-length human IgG1 format (antibody, V domains shown, Tested as full-length human IgG1) VH: QVQLVQSGAEVKKPGASVKVSCKASGFTFTEYSMHWVRQAPGQGLEWMGGINPNNGGTSYNQKFQGRVTMTRDTSTSTVYMELSSLRSEDTAVYYCARESWGQGTLVTVSS VL: DIVMTQSPLSLPVTPGEPASISCKSSQSLLHSDGKTYLNWYLQKPGQSPQLLIYLGSNRASGVPDRFSGSGSGTDFTLKISRVEAEDVGVYYCFQGTHFPHTFGGGTKVEIK | – | binds | – |
| anti-TDP43 clone I, full-length human IgG1 format (antibody, V domains shown, Tested as full-length human IgG1) VH: QVQLVQSGAEVKKPGASVKVSCKASGFTFTEYSMHWVRQAPGQGLEWMGGINPNNGGTIYNQKFQGRVTMTRDTSTSTVYMELSSLRSEDTAVYYCARESWGQGTLVTVSS VL: DIVMTQSPLSLPVTPGEPASISCKSSQSLLHSDGKTYLNWYLQKPGQSPQLLIYLGSNRASGVPDRFSGSGSGTDFTLKISRVEAEDVGVYYCMQGTHFPHTFGGGTKVEIK | – | binds | – |
| anti-TDP43 clone G, full-length human IgG1 format (antibody, V domains shown, Tested as full-length human IgG1) VH: QVQLVQSGAEVKKPGASVKVSCKASGFTFTEYSMHWVRQAPGQGLEWMGGINPNNGGTSYNQKFQGRVTMTRDTSTSTVYMELSSLRSEDTAVYYCASESWGQGTLVTVSS VL: DIVMTQSPLSLPVTPGEPASISCKSSQSLLHSDGKTYLNWYLQKPGQSPQLLIYLVSKLKSGVPDRFSGSGSGTDFTLKISRVEAEDVGVYYCMQGTHFPHTFGGGTKVEIK | – | binds | – |
| anti-TDP43 clone O, full-length human IgG1 format (antibody, V domains shown, Tested as full-length human IgG1) VH: QVQLVQSGAEVKKPGASVKVSCKASGYTFTKYWMHWVRQAPGQGLEWMGEINPKNGRTNYNQKFQGRVTMTRDTSTSTVYMELSSLRSEDTAVYYCWRYMDYWGQGTLVTVSS VL: DIVMTQSPLSLPVTPGEPASISCRSSQSLLHSNGYNYLDWYLQKPGQSPQLLIYKVSNRFSGVPDRFSGSGSGTDFTLKISRVEAEDVGVYYCLQHTHWPPTFGGGTKVEIK | – | binds | – |
| anti-TDP43 clone X, full-length human IgG1 format (antibody, V domains shown, Tested as full-length human IgG1) VH: QVQLVQSGAEVKKPGASVKVSCKASGYTFTSHYLHWVRQAPGQGLEWMGIINPSNGRTNYNQKFQGRVTMTRDTSTSTVYMELSSLRSEDTAVYYCWRYMDYWGQGTLVTVSS VL: DIVMTQSPLSLPVTPGEPASISCRSSQSLLHSNGYNYLDWYLQKPGQSPQLLIYEVSNRFSGVPDRFSGSGSGTDFTLKISRVEAEDVGVYYCLQHTHWPPTFGGGTKVEIK | – | binds | – |
